Measurements: patent US20220144895A1, “DE NOVO DESIGN OF TUNABLE PH-DRIVEN CONFORMATIONAL SWITCHES” (University of Washington, priority 2019, published 2022)
Changes are numbered by the printed parent chain. Names may count otherwise. “Also recorded” adds a separate entry of the source.

How the values were obtained:
[1] = Fluorescence dequenching liposome leakage (liposome disruption) assay; assay type: biochemical; conditions: for pH-dependent liposome disruption: 2.5 μM protein with respect to monomer, SRB leakage; for liposome disruption activity at pH 4.75: pH 4.75, 2.5 μM protein
Experimental: Liposomes composed of DOPC (1,2-dioleoyl-sn-glycero-3-phosphocholine), DOPC with 25% cholesterol (molar ratio to DOPC), 3:1 DOPC:POPS (1-palmitoyl-2-oleoyl-sn-glycero-3-phospho-L-serine), and 3:1 DOPC:POPS with 25% cholesterol were prepared identically to a final concentration of 5 mM total lipid as previously described (32); lipids from Avanti Polar Lipids. Lipids solubilized in chloroform were dried under nitrogen gas and stored under vacuum for a minimum of 2 hours to remove residual solvent. The dried lipid film was the resuspended in Tris buffer (10 mM Tris, 150 mM NaCl, and 0.02% NaN3 pH 8.0) containing 25 mM Sulforhodamine B (SRB) fluorophore (Sigma) and subjected to 10 sequential freeze thaw cycles in liquid nitrogen. Liposomes were extruded 29 times through 100 nm pore size polycarbonate filters (Avanti Polar Lipids) and purified from free fluorophore using a PD-10 gel filtration column (GE Healthcare) into storage buffer (10 mM Tris, 150 mM NaCl, and 0.02% NaN3 pH 8.0). Liposome size and homogeneity was analyzed by dynamic light scattering (DLS) using a Dynapro Nanostar™ DLS (Wyatt Technologies). On average liposome diameter ranged from 120-130 nm with low polydispersity. Liposomes were stored at 4° C. and used within 5 days of preparation.
Liposome disruption and content leakage was analyzed by fluorescence spectroscopy as previously described (32). […] The solution was rapidly acidified to the target pH by addition of a fixed volume of acidification buffer and incubated for 20 minutes. […] SRB fluorescence is independent of pH within the ranges used here. Finally. Triton X-100 (Sigma) was added to a final concentration of 1% to fully disrupt liposomes. Liposome disruption as indicated by content leakage and SRB dequenching was normalized using the formula [Fω−F(0)]/[F(Max)−F(0)] where F(0) is the average fluorescence intensity before acidification and F(Max) is the average fluorescence intensity ater addition of Triton X-100. All measurements were collected on a Varian Cary Eclipse spectrophotometer using an excitation/emission pairing of […] and 2.5 nm slit widths at 24° C. Any data plotted together was collected using the sum batch of liposomes.

[2] = Native mass spectrometry of pH-induced changes in oligomeric state; assay type: physicochemical; conditions: for cooperativity of the pH-induced transition: native MS at different pH values; for pH transition point of disassembly (pH set point, pH0) / pH response of oligomeric state (pH-induced disassembly): native MS; for pH transition point of disassembly (pH set point, pH0): evaluated from pH 7 down to pH 3; for reversibility of disassembly: pH lowered with acetic acid, then raised by ammonia or buffer exchange; for pH response of oligomeric state (pH-induced disassembly): pH ~7 to ~3
Experimental: Samples were buffer exchanged twice into 200 mM ammonium acetate (NH4Ac; MilliporeSigma) using Micro Bio-Spin P-6 columns (Bio-Rad). Protein concentrations were determined by UV absorbance using a Nanodrop 2000c spectrophotometer (Thermo Fisher Scientific) and diluted to make up a 10-fold stock solution (50 μM and 16.7 μM monomer and trimer concentration, respectively). 1 μL of this solution was mixed with 9 μL 200 mM NH4Ac/50 mM triethylammonium acetate (TEAA; MilliporeSigma), adjusted with acetic acid (Fisher Scientific) to obtain the desired final pH and incubated on ice for 30 min. […] 5 μL samples were filled into an in-house pulled glass capillary and ionized by nESI at a monomer or a trimer concentration of 5 μM or 1.67 μM respectively. All pH titration data were acquired on an in-house modified SYNAPT® G2 HDMS (Waters Corporation) with a surface-induced dissociation (SID) device incorporated between a truncated trap traveling wave ion guide and the ion mobility cell (39). The following instrument parameters were used spray voltage 0.9-1.3 kV; sampling cone, 20 V; extraction cone, 2 V; source temperature, room temperature; trap gas flow, 4 mL/min; trap bins, 45V. The data were processed with MassLynx™ v4.1 and DriftScope™ v2.1. For relative quantification, charge state series were extracted from DriftScope™, and smoothed spectra (mean; window 20; number of smooths 20) were integrated.
Python scripts were written to generate theoretical models according Equation 1, and curve-fitting to native mass spectrometry data (FIGS. 1, 3, 5) according to Equation 2 by nonlinear least squares using curve fit from scipy.optimize. The free energy estimates for individual n, m, and l layers used in Equation 1 modeling were estimated by solving linear equations as follows: values for the free energy of folding for designs pRO-2 and variants were estimated from GdmCl denaturation experiments (FIG. 11); each of these designs have different numbers of n, m, and l layers, thus series of linear equations relating the number of each layer type to the total free energies of folding were solved to estimate dG values of the individual layers of each type.

[3] = Circular dichroism: GdmCl chemical denaturation and temperature melts; conditions: CD at 222 nm, PBS pH 7.4 or Na2PO4-Citrate at lower pH
Text: For low-pH experiments involving circular dichroism (CD), small-angle X-ray scattering (SAXS), and size exclusion chromatography (SEC), Na2PO4-Citrate buffer was used to ensure that a single buffer system could be used that was stable over the entire pH range to be tested. Buffers were made using established ratios of stock solutions of 0.2 M Na2PO4 and 0.1 M Citrate; final pH was adjusted using hydrochloric acid (HCl) or sodium hydroxide (NaOH) if needed.
CD wavelength scans (260 to 195 nm) and temperature melts (25 to 95° C.) were measured using a JASCO™ J-1500 or an AVIV™ model 420 CD spectrometer. Temperature melts monitored absorption signal at 222 nm and were carried out at a heating rate of 4° C./min; protein samples were at 0.25 mg/mL in either phosphate buffered saline (PBS) pH 7.4 or Na2PO4-Citrate at indicated pH values (see Buffers systems for varying pH). Guanidinium chloride (GdmCl) titrations were all performed on an AVIV 420 spectrometer with an automated titration apparatus using either PBS pH 7.4 or Na2PO4-Citrate buffers at indicated pH at room temperature, monitoring helical signal at 222 nm, using a protein concentration of 0.025 mg/mL in a 1 cm cuvette with stir bar. Each titration consisted of at least 30 evenly distributed concentration points with one minute mixing time for each step. Titrant solution consisted of the same concentration of protein in the same buffer system plus GdmCl; GdmCl concentration of starting solutions was determined by reactive index.

[4] = target: the molecule itself; assay: native mass spectrometry; homotrimer
Experimental: Oligomeric state was assessed by size-exclusion chromatography (SEC) and native mass spectrometry (24).
Samples were buffer exchanged twice into 200 mM ammonium acetate (NH₄Ac; MilliporeSigma) using Micro Bio-Spin P-6 columns (Bio-Rad). Protein concentrations were determined by UV absorbance using a Nanodrop 2000c spectrophotometer (Thermo Fisher Scientific) and diluted to make up a 10-fold stock solution (50 μM and 16.7 μM monomer and trimer concentration, respectively). 1 μL of this solution was mixed with 9 μL 200 mM NH₄Ac/50 mM triethylammonium acetate (TEAA; MilliporeSigma), adjusted with acetic acid (Fisher Scientific) to obtain the desired final pH and incubated on ice for 30 min.

[5] = fused at its n-terminus to a nanoparticle

B1: pRO-2 I70N: pRO-2 mutant, SEQ ID NO: 21-22 (protein)
chain 1: MGSHHHHHHGSGSENLYFQGSEYEIRKALEELKAATAELKRATASLRAITEELKKNPSEDALVEHNRAIVEHNAIIVEHNRIIAAVLELNVRAIK
chain 2: GSEYEIRKALEELKAATAELKRATASLRAITEELKKNPSEDALVEHNRAIVEHNAIIVEHNRIIAAVLELNVRAIK
pH-dependent liposome disruption [1]: attenuation of pH-induced liposome disruption | pH-dependent liposome disruption ([1]; listed as pRO-2170N): attenuates liposome activity

B2: pRO-2 A54M: pRO-2 mutant, SEQ ID NO: 19-20 (protein)
chain 1: B1 chain 1 with A74M, N90I
chain 2: B1 chain 2 with A55M, N71I
cooperativity of the pH-induced transition [2]: Neither of the mutations substantially affect the cooperativity | pH transition point of disassembly (pH set point, pH0) [2]: decreases the transition pH | folding stability by GdmCl denaturation [3]: increases stability

B3: SEQ ID NO: 40: as SEQ ID NO: 39 but third asparagine network mutated to all hydrophobics (protein)
chain: GSEEEIKRLLEELRKALEELRRITKELDDLSKELRVGGSGSGSLVPRGSGSGSGSHALVEHNKLISEHNRIVVEVLRIIAEILEAIARVGGSGSGSVEVERILDELRKALEELDRVTKELKKLTEELDVGGSGSGSLVPRGSGSGSGSVEALVRHNVLITRHNDIVVKVLDIIAKILKLIAEAVGGSGSGSELERILRELEEALKELRKATEELRRLSEELKVGGSGSGSLVPRGSGSGSGSHEALVRHNEAIVEHNKIVVKVLDIIAKILELITERI
kinetics of liposome disruption relative to pRO2.3, nanoparticle fusion [1, 5]: slower kinetics | liposome disruption better than pRO2.3, nanoparticle fusion [1, 5]: 5-10%

B4: pRO-2.1 subunit (designed binder)
chain: SEYEIRKALEELKAALAELKRATASLRAITEELKKNPSEDALVEHNRAIVEHNAIIVEVLRIIAAVLELIVRAIK
notes: forms a homotrimer; Tag-free form
binding result [4]: binds

B5: pRO-2.5: pRO-2 variant, SEQ ID NO: 11-12 (protein)
chain 1: B1 chain 1 with A35S, I49S, H65N, A68L, H79N, N90I
chain 2: B4 chain with A15S, L16T, I29S, H45N, A48L, V59N, L60N
cooperativity of the pH-induced transition [2]: least cooperative design tested | pH transition point of disassembly (pH set point, pH0) [2]: ~4 pH | reversibility of disassembly [2]: Re-association was induced | folding stability by GdmCl denaturation [3]: lowest stability

B6: pRO-2.5 subunit (designed binder)
chain: B4 chain with A15S, L16T, I29S, H45N, A48L, V59N, L60N
notes: forms a homotrimer; Tag-free form; also called PDB 6MSR
binding result [4]: binds

B7: SEQ ID NO: 39: similar to pRO2.3, Thrombin cleavage sites on each loop, destabilizing I56V mutation (protein)
chain: GSEEEIKRLLEELRKSSEELRRITKELDDLSKELRVGGSGSGSLVPRGSGSGSGSHALVEHNKLISEHNRIVVENNRIIVEILEAIARVGGSGSGSVEVERILDELRKSSEELDRVTKELKKLTEELDVGGSGSGSLVPRGSGSGSGSVEALVRHNVLITRHNDIVVKNNDIINKILKLIAEAVGGSGSGSELERILRELEESTKELRKATEELRRLSEELKVGGSGSGSLVPRGSGSGSGSHEALVRHNEAIVEHNKIVVKNNDIIVKILELITERI
kinetics of liposome disruption relative to pRO2.3, nanoparticle fusion [1, 5]: slower kinetics | liposome disruption relative to pRO2.3, nanoparticle fusion [1, 5]: close as well as pRO2.3

B8: pRO-3.1: pRO-3 variant, SEQ ID NO: 25-26 (protein)
chain 1: MGSHHHHHHGSGSENLYFQGSEALYELEKATRELKKATDELERATEELEKNPSEDALVEHNRLIAEHNKIIAEHNRIIAKVLK
chain 2: GSEALYELEKATRELKKATDELERATEELEKNPSEDALVEHNRLIAEHNKIIAEHNRIIAKVLK
pH response of oligomeric state (pH-induced disassembly) [2]: more pH-sensitive than design pRO-3 | reversibility of disassembly [2]: re-association of monomers into trimer | pH-dependent liposome disruption [1]: did not exhibit any liposome disruption | liposome disruption activity at pH 4.75 [1]: does not

B9: pRO-3: designed homotrimer, SEQ ID NO: 23-24 (protein)
chain 1: B8 chain 1 with T31L, D39A, E40A, E46A, E49K, E66A, H74V, N75L
chain 2: B8 chain 2 with T12L, D20A, E21A, E27A, E30K, E47A, H55V, N56L
pH-dependent liposome disruption [1]: caused pH-dependent liposome disruption | liposome disruption activity at pH 4.75 [1]: shows liposome disruption activity

B10: 2L6HC3_13: previous designed homotrimer lacking buried histidines, PDB ID 5J0H (protein)
chain: GTKYELRRALEELEKALRELKKSLDELERSLEELEKNPSEDALVENNRLNVENNKIIVEVLRIIAEVLKINAKSD
pH response of oligomeric state (pH-induced disassembly) [2]: no change in oligomeric state; also recorded: no significant pH response | pH response of oligomeric state (pH-induced disassembly) ([2]; listed as 2L6C3_13): not pH-sensitive | folding stability by GdmCl denaturation [3]: no change | folding stability by GdmCl denaturation ([3]; listed as 2L6C3_13): no destabilization
